Source: the nanobody polyreactivity screen of Harvey et al. (2022)

Assay: yeast display, Sf9 membrane polyspecificity reagent, FACS + sequencing; frameworks hold sequencing errors
Summary of the method: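 Genes from sorted yeast were amplified by colony PCR, read by MiSeq 2 × 250 sequencing and filtered on CDR length. These cells carried a synthetic nanobody library in Saccharomyces cerevisiae BJ5465 and were sorted by FACS into low and high (top ~1%) gates on anti-HA and streptavidin fluorescence. Polyreactivity is labelled according to the gate of origin.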

Row | Sequence | polyreactivity (PSR sort gate)
1 | QVQLVESGGGLVQAGGSLRLSCAASGSIFTAYDKGWYRQAPGKVRDLVAAINVSAGTTYYADSVKGRFTISRDNAKNTVYLQMNSLKPEDTAVYYCATDRSPTPYTRENIYDYWGQGTQVTVSS | low polyreactivity
2 | QVQLVESGGGLVQAGGSLRLSCAASGSIFTAYTMGWYRQAPGKERELVAAITERGGSTYYADSVKGRFTISRDNAKKTVYLQMNSMKPEDTAVYYCAASTLKDIYLWFRVDYWGQGTQVTVSS | low polyreactivity
3 | QVQLVESGGGLVQAGGSLRLSCAASGSIFTDNAMGWYRQAPGKERELVAAITSNGGSTYYADSVKGRFTISRDNAKNTVYLQMNSLKPEDTAVYYCAADSLYREDDYWGHGTQVTVSS | low polyreactivity
4 | QVQLVESGGGLVQAGGSLRLSCAASGSIFTDYALAWYRQAPGKERELVATITWSDATTYYTDSVKGRFTISRDNAKNTVYLQMNSLKPEDTAVYYCARRSRYSKGYDYWGQGTQVTVSS | low polyreactivity
5 | QVQLVESGGGLVQAGGSLRLSCAASGSIFTENEMGWYRQAPGKERELVATITITGSTNYADSVKGRFTISRDNAKNTVYLQMNSLKPEDTAVYYCAAEQPYKSPWTFGGYDYWGQGTQVTVSS | low polyreactivity
6 | QVQLVESGGGLVQAGGSLRLSCAASGSIFTFNSMGWYRQSPGKERELVAAIRWSSGRTYYADSVKGRFTISRDNAKNTVYLQMNSLKPEETAVYYCAAKDFGSFYDSGYDYWGQGTQVTVSS | high polyreactivity
7 | QVQLVESGGGLVQAGGSLRLSCAASGSIFTFYAMGWYRQAPGKERELVAAISSSGTSTYYADSVQGRFTISRDNAKNTVYLQMNSLKPEDTAVYYCNVPMPPAKAEYGYWGQGTQVTVSS | high polyreactivity
8 | QVQLVESGGGLVQAGGSLRLSCAASGSIFTFYDMGWYRQAPGKERELVAAISSGGSTTYADSVKGRFTISRDNAKNTVYLQMNSLKPEDTAVYYCAADSQPYLYPVEYDYWGQGTQVTVSS | low polyreactivity
9 | QVQLVESGGGLVQAGGSLRLSCAASGSIFTGNAMGWYRPAPGTERELVAAITRSGDSTYYADSVKGRFTISRDNAKNTVYLQMNSLKPEDTAVDYCNARWRYLHSYGYWGQGTQVTVSS | low polyreactivity
10 | QVQLVESGGGLVQAGGSLRLSCAASGSIFTGNAMGWYRQAPGKERELVAGISKSGGSTYYADSVKGRFTISRDNAKNTVYLQMNSLKPEDTAVYYCAAREGWWPYYYWGQGTQVTVSS | high polyreactivity
11 | QVQLVESGGGLVQAGGSLRLSCAASGSIFTGYAMGWYRPAPGKERELVAAITSGGGTYYADSVKGRFTISRDNAKNTVSLQMNSLKPEDTAVYYCATTPGWYKVSRRYGYWGQGTQVTVSS | high polyreactivity
12 | QVQLVESGGGLVQAGGSLRLSCAASGSIFTGYAMGWYRQAPGKERELVAAITYGSGRTYYADSVKGRFTISRDNAKNTVYLQMNSLKPEDTAVYYCAAKWSPYYYYIGYDYWGQGTQVTVSS | low polyreactivity
13 | QVQLVESGGGLVQAGGSLRLSCAASGSIFTHNAMGWYRPAPGKERELVAAISSGGSTYYADSVKGRFTISRDNAKNTVYLQMNSLKPEDTAVYYCAVRQGWYHFRYDYWGQGTQVTVSS | high polyreactivity
14 | QVQLVESGGGLVQAGGSLRLSCAASGSIFTHYAMGWYRQAPGKERELVAAISRRGGSTYYADSVKGRFTISRDNAKNTVYLQMNSLKPEDTAVYYCANSPDTAKEYDYWGQGTQVTVSS | high polyreactivity
15 | QVQLVESGGGLVQAGGSLRLSCAASGSIFTLYAMGWYRQAPGKERELVADITFSGGTTYYADSVKGRFTISRDNAKNTVYLQMNSLKPEDTAVYYCATTYYQLYVQGYEYWGQGTQVTVSS | high polyreactivity
16 | QVQLVESGGGLVQAGGSLRLSCAASGSIFTNNAMGWYRQAPGKERELVAGISIRGSSTYADSVKGRFTISRDNAKNTVYLQMNSLKPEDTAVYDCAADAYLELDPEVDYWGQGTQVTVSS | low polyreactivity
17 | QVQLVESGGGLVQAGGSLRLSCAASGSIFTPNAMGWYRQAPGKERELVAAISSSSDRTYYADSVKGRFTISRDNAKNTVYLQLNSLKPEDTAVYYCAAYAQKRYYWGQGTQVTVSS | high polyreactivity
